Data taken from doi:10.1101/2024.01.22.576510 (bioRxiv, 2024).

Target: human Na+-taurocholate co-transporting polypeptide (NTCP), detergent-purified, tags cleaved (Homo sapiens, UniProt Q14973)
Assay: cryo-EM structure

human Na+-taurocholate co-transporting polypeptide (NTCP), detergent-purified, tags cleaved, sequence (Q14973 whole entry): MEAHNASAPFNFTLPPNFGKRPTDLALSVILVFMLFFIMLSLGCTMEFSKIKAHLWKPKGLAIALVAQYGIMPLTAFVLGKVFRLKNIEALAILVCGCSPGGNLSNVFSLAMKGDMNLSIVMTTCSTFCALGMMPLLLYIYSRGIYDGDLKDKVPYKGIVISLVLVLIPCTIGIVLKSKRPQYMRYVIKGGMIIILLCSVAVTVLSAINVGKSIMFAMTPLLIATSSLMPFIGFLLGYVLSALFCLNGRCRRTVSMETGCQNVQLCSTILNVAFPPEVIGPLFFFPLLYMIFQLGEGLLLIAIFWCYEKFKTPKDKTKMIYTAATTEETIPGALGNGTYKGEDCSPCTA

B1: Fab3 (Fab, V domains shown)
VH: EVQLVESGGGLVQPGGSLRLSCAASGFNVSSSYIHWVRQAPGKGLEWVASISPYYSYTSYADSVKGRFTISADTSKNTAYLQMNSLRAEDTAVYYCARYQYDYYYSYYAGLDYWGQGTLVTVSS
VL: DIQMTQSPSSLSASVGDRVTITCRASQSVSSAVAWYQQKPGKAPKLLIYSASSLYSGVPSRFSGSRSGTDFTLTISSLQPEDFATYYCQQYRYSLITFGQGTKVEIK
B1: binds.
